Assay [1] has as its target VC-Ubx^NES (NES-mutated full length Ubx fused to the C-terminal fragment of Venus) (Drosophila). Put plainly: split reporter.
Assay [2] concerns the target GST-Ubx NES-mutated (Drosophila). Put plainly: pull-down.

In turn, “VN-Emb (Embargoed fused to the N-terminal fragment of Venus) (from UniProt Q9TVM2 1-1063) (natural protein)” had a percent decrease of BiFC fluorescence in the nucleus against wild type Ubx in assay [1] of 40%.

For the substance “VC-Emb, in S2R+ cell extract (from UniProt Q9TVM2 1-1063) (natural protein)”, in assay [2], the percent loss of pulled-down Emb against wild type GST-Ubx came out at 30%.
